The results in this text go back to PMC3366460.

In the assay the target is HsUbcH5b(C85S)~Ub oxyester-linked conjugate (human | mammalian) (UniProt P62837). Put plainly: pull-down.

Take “HsUbcH5b(C85S)~Ub oxyester-linked conjugate (from UniProt P62837 1-147; P0CG48 1-76) (complex)”: the stoichiometry N (commonly the number of molecules, sites or subunits per partner or assembly) came out at 4.
